The sequences below were run on MS2 coat protein (assay: apparent KD of MS2 coat protein, switch OFF state (with FMN for OFF switches, without FMN for ON switches); designed switch direction (-1 OFF switch, 1 ON switch): 1; higher = weaker reporter binding). Conditions: FMN input: 0 or 200 uM; Eterna round: R93 (includes R88 designs).
Procedure, shortened: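 For every design, apparent KD is the median of normalised binding-curve fits from its clusters. The RNA switches were transcribed on-chip from Illumina sequencing clusters and titrated with SNAP-549-labelled MS2 coat protein (twofold steps, 0.7 or 1.5 nM to 3 µM; 0.8–1.5 h to 10–20 min per step). Titrations used 100 mM Tris-HCl pH 7.5, 80 mM KCl, 4 mM MgCl2, without or with constant ligand.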

| Sequence | apparent KD of MS2 coat protein [µM] |
| --- | --- |
| AAUACACAUGGUCAGGAUAUCGCAGCUAGGACAUGAGGAUCACCCAUGUCGUACGUAACCGUAAAUGAGAAGGGACAGGGUGACC [JR_SS002_Sub408] | 0.0541 |
| AAAAAAAAAACUCAGGAUAUAGAUUGUAGAACAUGAGGAUCACCCAUGUAGUGAAAGAAGAGAGACUAGAAGGGAGUAAAAAAAAA [Same State 2 #3] | 0.0691 |
| UUUAAUUAUACGAAGGAUAUCGGUAAUUAGACAUGAGGAUCACCCAUGUUAUAUGGUUCCAUAUUCGAGAAGGUCGCGGGUGAAC [JR_SS002_Sub508] | 0.0193 |
| AGAAGACAUGAGGAUCACCCAUGUGGGAAUAUGGGAGGAUAUACAAAGACGAGAGUCAGAGUAGAAGGCCUAGGAG [salish99-SS1-093] | 0.15 |
| AACAAUCUAUCUGAGGAUAUCAUGUCAAAGACAUGAGGAUCACCCAUGUCUAGGAAAACUAGAUAUGAGAAGGCAGAUAGAUUGA [SS2 :P - 597] | 0.126 |
| CAGGGACAUGAGGAUCACCCAUGUGGGAUUAUGGGAGGAUAUACAAAGACGAGAGUCAGAGUAGAAGGCCUAGGAC [salish99-ss1-128] | 0.0857 |
| CUUAGACAUGAGGAUCACCCAUGUCGAACAAACAAAGGAUAUGGGAGCCGAAGACGGCUAUUAGAAGGUUGCAAAA [Anrioned] | 0.0264 |
| AAAAAAAAAGUCGAGGAUAUCCACAUGGCGACAUGAGGAUCACCCAUGUGAAGAAAAGCACAUGAGGAGAAGGCGACAAAAAAAA [Same State 2.7a (Tightrope mod)] | 0.225 |
| AUAAAACAUGAGGAUCACCCAUGUAGAAAUAUGGGAGGAUAUACAAAGACGAAAGUCGAGGUAGAAGGCCUAAAAG [Mat - Same State 1 - Meechl mod - D121] | 0.0979 |
| AAAAGACAUGAGGAUCACCCAUGUCAAAACAUAGGAGGAUAUGUCGUGAAAAAAGACUUGGCAGAAGGCCUUUGUC [SS1 - 48] | 0.0193 |
| AAAAAAAAAUCACAGGAUAUACAAAAAAAAACAUGAGGAUCACCCAUGUAAAAAAAAAAAAAAAAGUAGAAGGGUGAUCCAAAAAA | 0.00928 |
| AAGAAACAUGAGGAUCACCCAUGUAGAAAUAUGGGAGGAUAUACAAAGACGAAAGUCAAAGUAGAAGGCCUAAGAA [Mat - Same State 1 - Meechl mod - D129] | 0.0632 |
| AAAAAACAUGAGGAUCACCCAUGUGCAAAAUUCGCAGGAUAUUCUUUUUUUAAAUGGGAGGGAGAAGGGUGUAAAA [Nob's Hobby 20 - Jieux - Same State 1] | 0.0213 |
| AUAUGAGCUAUGGAGGAUAUCCAUAACAAGACAUGAGGAUCACCCAUGUAAUCAAAACAAUAAUGGGAGAAGGCCAUAGCUCAAU [SS 2 M47] | 0.0509 |
| UAAAAACAUGAGGAUCACCCAUGUAGAAAUAUGGGAGGAUAUACAAAGACGAAAGUCAAAGUAGAAGGCCUAAAAU [Mat - Same State 1 - Eli mod - 32] | 0.0622 |
| GUGGUACAUGAGGAUCACCCAUGUGUGGGAGCAUGAGGAUAUGUCAGUCCAUGAAAUACGAUAGAAGGCAUGGUGA [JR_SS001_Sub1712] | 0.264 |
| AAAUAACAUGAGGAUCACCCAUGUUGCAACGGUACAGGAUAUGUGGGUGAAAAUAGCAUGACAGAAGGGUAGUGUA [SameState1 Malc#30] | 0.15 |

| Sequence | apparent KD of MS2 coat protein [µM] |
| --- | --- |
| ACCCGAAAGACGUAGGAUAUGUGGUCACCGACAUGAGGAUCACCCAUGUAUGCGGGAGAAUGGGUGCAGAAGGACGCUGUUCGGU [Antilera] | 0.192 |
| AAGAAACAUGAGGAUCACCCAUGUAAUAAUAUGGGAGGAUAUACAAGGACGUAAGUCAAGGUAGAAGGCCUAAGAA [Mat - Same State 1 - Meechl mod - D141] | 0.137 |
| AAAUAACAUGAGGAUCACCCAUGUGGGCUUAAGCAAGGAUAUGGGCACUCAAAAGUAGCGCCAGAAGGUGCAGUCG [Anrabitien] | 0.145 |
| AAAAAACAAAGAGAGGAUAUCCAAAAAAAAACAUGAGGAUCACCCAUGUAAAGAAAUUUAAAAUGGGAGAAGGCUCUUUGAAAAA [Same State 2.6b ( Helter Skelter 1)] | 0.0309 |
| AAAAGAGCGACACAGGAUAUGUUGACUCUAACAUGAGGAUCACCCAUGUGCAUUUAGGGUCGUGCGCAGAAGGGUGUAGCUCGGA [Laesbibiti] | 0.0247 |
| AGGAAACAUGAGGAUCACCCAUGUAAGAUAUACACAGGAUAUGCGAAAAGAAACAAAGAAGCAGAAGGGUGGAAAA [75%, Ex sub1, 11] | 0.0316 |
| AAUAUAUUAAGCGAGGAUAUCGAGGAAAAAACAUGAGGAUCACCCAUGUGGGUAAAAAAAAAAAGUGAGAAGGUGCUUAAUAUAU [Samwise Clockwise 9 - Jieux - Same State 2] | 0.0747 |
| AUAACAACGUAUGAGGAUAUCCAUAAUAAAACAUGAGGAUCACCCAUGUGAAUAAAAUAACAAUGGGAGAAGGCAUACGUACAAU [SS 2 M 51] | 0.016 |
| AAUAACAAAAGAAAGGAUAUGCGCACAGGAACAUGAGGAUCACCCAUGUGGCCCGAAAGGGCAUAGCAGAAGGUUCACACGCAUA [Default title] | 0.042 |
| GAGAGACAUGAGGAUCACCCAUGUAGGAUUAUGGGAGGAUAUACAAAGACGAGAGUCAGAGUAGAAGGCCUAGGAC [salish99-ss1-140] | 0.0567 |
| GCAGGGCCACACUAGGAUAUGGGUGUCUAGACAUGAGGAUCACCCAUGUUAUGGCAAAACAAAGCUCAGAAGGAGUCGUGGCCCA [Tizasozaer] | 0.036 |
| ACAAUACAUGAGGAUCACCCAUGUUAGCUGGGCGAAGGAUAUGUAGAUGGAUAAAAAUAUGCAGAAGGUCGAUAAC [JR_SS001_Sub209] | 0.109 |
| AAAAAACAAAGAGAGGAUAUCCUGAAAAAAACAUGAGGAUCACCCAUGUAAAGAAAUUUAAAAUGGGAGAAGGCUCUUUGAAAAA [Same State 2.6c ( Helter Skelter 1)] | 0.0223 |
| AAAACACAUGAGGAUCACCCAUGUAGAAAUACGGGAGGAUAUACGAAAACGAAAGACAAAGUAGAAGGCCUAAAAG [saturn 7] | 0.053 |
| GCCUAACAUGAGGAUCACCCAUGUAGUGGGUUGUUAGGAUAUGGGCCGCAUUACGCUGCACCAGAAGGAAUAGAAG [Rasoraer] | 0.475 |
| AGGAGACAUGAGGAUCACCCAUGUGAGAAGAGGCGAGGAUAUCGAAAGAAAGAAGAGAAACGAGAAGGCGCGAGGA [salish99-SS1-019] | 0.0585 |
